Source: patent US20240091361A1, “T CELL RECEPTORS TARGETING RAS MUTATIONS AND USES THEREOF” (MEMORIAL SLOAN-KETTERING CANCER CENTER, priority 2021, published 2024)

What was measured:
[1] = biological target: T1, KRAS wild type (10-mer) peptide on HLA-A*11:01 (human); experiment: cytokine release
T1 peptide: VVVGAGGVGK

[2] = biological target: T2, GEM (also listed as SEQ ID NOs 82, 106, 130, 141) peptide on HLA-A*11:01 (human); experiment: cytokine release
T2 peptide: AVFGAGGVGK

[3] = biological target: T3, KRAS G12D (10-mer; the same sequence in NRAS G12D and HRAS G12D) peptide on HLA-A*11:01 (human); experiment: multimer staining
T3 peptide: VVVGADGVGK

[4] = biological target: T4, peptide-pulsed HLA-A*11:01+ COS-7 target cells (Homo sapiens, UniProt P04439, A114D/D185E/E176A/F33Y/L180Q/S129P/T187R); experiment: Cross-reactivity: IFN-γ ELISA after coculture of RAS TCR-T cells with peptide-pulsed HLA-A*11:01+ COS-7 cells; format: cell-based; conditions: peptides of Tables 7-11 at 1 μM, E:T 1:1, 24 h; background threshold 50 pg/mL
T4 construct: Target COS-7 cells were electroporated with mRNA encoding full-length human HLA*11:01; expressed in transfected cells; host or cells: COS-7 cells electroporated with mRNA
Experimental: Next, studies were conducted to determine the cross-reactivity potential of RAS-specific TCRs. Individual TCR peptide motifs were scanned against the human proteome to identify potential cross-reactive sequences. Target COS-7 cells were electroporated with mRNA encoding full-length human HLA*11:01 and incubated at 37 degrees overnight to allow HLA-A*11:01 protein expression. […]. The cells were then pulsed with an individual peptide corresponding to its RAS-specific TCR (see Tables 7-11) at a concentration of 1 μM; finally, wild-type (WT) and mutated RAS peptides were included as functional controls. RAS TCR-T cells, expressing individual RAS TCRs 1-5, were added at an E:T ratio of 1:1 and incubated at 37 degrees for 24 h. Supernatants were harvested from coculture wells to perform an ELISA assay to determine levels of IFN-γ production.

Molecule	reactivity (IFN-γ) to alternative human peptide sequences possessing the recognition motif [4]	also measured
TCR 1 (TCR, V domains shown) Valpha: GDSVTQMEGPVTLSEEAFLTINCTYTATGYPSLFWYVQYPGEGLQLLLKATKADDKGSNKGFEATYRKETTSFHLEKGSVQVSDSAVYFCALSDRVGGARLMFGDGTQLVVKP Vbeta: EADIYQTPRYLVIGTGKKITLECSQTMGHDKMYWYQQDPGMELHLIHYSYGVNSTEKGDLSSESTVSRIRTEHFPLTLESARPSHTSQYLCASSEGLYNEQFFGPGTRLTVL	–	binding result [1]: no recognition; binding result [2]: no recognition; binding result [3]: recognises
TCR 1: T cell receptor targeting RAS G12D peptide; α chain SEQ ID NO: 12, β chain SEQ ID NO: 13 (protein, listed as Homo sapiens, Description of sequence: Full alpha-chain; Description of sequence: Full beta-chain) alpha: MNYSPGLVSLILLLLGRTRGDSVTQMEGPVTLSEEAFLTINCTYTATGYPSLFWYVQYPGEGLQLLLKATKADDKGSNKGFEATYRKETTSFHLEKGSVQVSDSAVYFCALSDRVGGARLMFGDGTQLVVKPNIQNPDPAVYQLRDSKSSDKSVCLFTDFDSQTNVSQSKDSDVYITDKTVLDMRSMDFKSNSAVAWSNKSDFACANAFNNSIIPEDTFFPSPESSCDVKLVEKSFETDTNLNFQNLSVIGFRILLLKVAGFNLLMTLRLWSS beta: MTIRLLCYMGFYFLGAGLMEADIYQTPRYLVIGTGKKITLECSQTMGHDKMYWYQQDPGMELHLIHYSYGVNSTEKGDLSSESTVSRIRTEHFPLTLESARPSHTSQYLCASSEGLYNEQFFGPGTRLTVLEDLKNVFPPEVAVFEPSEAEISHTQKATLVCLATGFYPDHVELSWWVNGKEVHSGVSTDPQPLKEQPALNDSRYCLSSRLRVSATFWQNPRNHFRCQVQFYGLSENDEWTQDRAKPVTQIVSAEAWGRADCGFTSESYQQGVLSATILYEILLGKATLYAVLVSALVLMAMVKRKDSRG	did not exhibit reactivity	–
TCR 5: T cell receptor targeting RAS G12D peptide; α chain SEQ ID NO: 50, β chain SEQ ID NO: 51 (protein, listed as Homo sapiens, Description of sequence: Full alpha-chain; Description of sequence: Full beta-chain) alpha: MKTFAGFSFLFLWLQLDCMSRGEDVEQSLFLSVREGDSSVINCTYTDSSSTYLYWYKQEPGAGLQLLTYIFSNMDMKQDQRLTVLLNKKDKHLSLRIADTQTGDSAIYFCAERDAGNNRKLIWGLGTSLAVNPNIQNPDPAVYQLRDSKSSDKSVCLFTDFDSQTNVSQSKDSDVYITDKTVLDMRSMDFKSNSAVAWSNKSDFACANAFNNSIIPEDTFFPSPESSCDVKLVEKSFETDTNLNFQNLSVIGFRILLLKVAGFNLLMTLRLWSS beta: MGTRLLCWVVLGFLGTDHTGAGVSQSPRYKVAKRGQDVALRCDPISGHVSLFWYQQALGQGPEFLTYFQNEAQLDKSGLPSDRFFAERPEGSVSTLKIQRTQQEDSAVYLCASSLEGGDTQYFGPGTRLTVLEDLKNVFPPEVAVFEPSEAEISHTQKATLVCLATGFYPDHVELSWWVNGKEVHSGVSTDPQPLKEQPALNDSRYCLSSRLRVSATFWQNPRNHFRCQVQFYGLSENDEWTQDRAKPVTQIVSAEAWGRADCGFTSESYQQGVLSATILYEILLGKATLYAVLVSALVLMAMVKRKDSRG	did not exhibit reactivity	–
TCR 4: T cell receptor targeting RAS G12D peptide; α chain SEQ ID NO: 41, β chain SEQ ID NO: 42 (protein, listed as Homo sapiens, Description of sequence: Full alpha-chain; Description of sequence: Full beta-chain) alpha: MMKSLRVLLVILWLQLSWVWSQQKEVEQDPGPLSVPEGAIVSLNCTYSNSAFQYFMWYRQYSRKGPELLMYTYSSGNKEDGRFTAQVDKSSKYISLFIRDSQPSDSATYLCAMGALNSGAGSYQLTFGKGTKLSVIPNIQNPDPAVYQLRDSKSSDKSVCLFTDFDSQTNVSQSKDSDVYITDKTVLDMRSMDFKSNSAVAWSNKSDFACANAFNNSIIPEDTFFPSPESSCDVKLVEKSFETDTNLNFQNLSVIGFRILLLKVAGFNLLMTLRLWSS beta: MGSRLLCWVLLCLLGAGPVKAGVTQTPRYLIKTRGQQVTLSCSPISGHRSVSWYQQTPGQGLQFLFEYFSETQRNKGNFPGRFSGRQFSNSRSEMNVSTLELGDSALYLCASSLSSGTGTEAFFGQGTRLTVVEDLNKVFPPEVAVFEPSEAEISHTQKATLVCLATGFFPDHVELSWWVNGKEVHSGVSTDPQPLKEQPALNDSRYCLSSRLRVSATFWQNPRNHFRCQVQFYGLSENDEWTQDRAKPVTQIVSAEAWGRADCGFTSVSYQQGVLSATILYEILLGKATLYAVLVSALVLMAMVKRKDF	did not exhibit reactivity	–
TCR 3: T cell receptor targeting RAS G12D peptide; α chain SEQ ID NO: 31, β chain SEQ ID NO: 32 (protein, listed as Homo sapiens, Description of sequence: Full alpha-chain; Description of sequence: Full beta-chain) alpha: MACPGFLWALVISTCLEFSMAQTVTQSQPEMSVQEAETVTLSCTYDTSESDYYLFWYKQPPSRQMILVIRQEAYKQQNATENRFSVNFQKAAKSFSLKISDSQLGDAAMYFCAYRSDGGATNKLIFGTGTLLAVQPNIQNPDPAVYQLRDSKSSDKSVCLFTDFDSQTNVSQSKDSDVYITDKTVLDMRSMDFKSNSAVAWSNKSDFACANAFNNSIIPEDTFFPSPESSCDVKLVEKSFETDTNLNFQNLSVIGFRILLLKVAGFNLLMTLRLWSS beta: MGPQLLGYVVLCLLGAGPLEAQVTQNPRYLITVTGKKLTVTCSQNMNHEYMSWYRQDPGLGLRQIYYSMNVEVTDKGDVPEGYKVSRKEKRNFPLILESPSPNQTSLYFCASSLGAGGYNSPLHFGNGTRLTVTEDLNKVFPPEVAVFEPSEAEISHTQKATLVCLATGFFPDHVELSWWVNGKEVHSGVSTDPQPLKEQPALNDSRYCLSSRLRVSATFWQNPRNHFRCQVQFYGLSENDEWTQDRAKPVTQIVSAEAWGRADCGFTSVSYQQGVLSATILYEILLGKATLYAVLVSALVLMAMVKRKDF	low level reactivity to a single alternative peptide	–
TCR 2: T cell receptor targeting RAS G12D peptide; α chain SEQ ID NO: 22, β chain SEQ ID NO: 23 (protein, listed as Homo sapiens, Description of sequence: Full alpha-chain; Description of sequence: Full beta-chain) alpha: MTRVSLLWAVVVSTCLESGMAQTVTQSQPEMSVQEAETVTLSCTYDTSENNYYLFWYKQPPSRQMILVIRQEAYKQQNATENRFSVNFQKAAKSFSLKISDSQLGDTAMYFCAFMYPSQGGSEKLVFGKGMKLTVNPNIQNPDPAVYQLRDSKSSDKSVCLFTDFDSQTNVSQSKDSDVYITDKTVLDMRSMDFKSNSAVAWSNKSDFACANAFNNSIIPEDTFFPSPESSCDVKLVEKSFETDTNLNFQNLSVIGFRILLLKVAGFNLLMTLRLWSS beta: MGPGLLCWVLLCLLGAGSVETGVTQSPTHLIKTRGQQVTLRCSSQSGHNTVSWYQQALGQGPQFIFQYYREEENGRGNFPPRFSGLQFPNYSSELNVNALELDDSALYLCASSSPGFRSYGYTFGSGTRLTVVEDLNKVFPPEVAVFEPSEAEISHTQKATLVCLATGFFPDHVELSWWVNGKEVHSGVSTDPQPLKEQPALNDSRYCLSSRLRVSATFWQNPRNHFRCQVQFYGLSENDEWTQDRAKPVTQIVSAEAWGRADCGFTSVSYQQGVLSATILYEILLGKATLYAVLVSALVLMAMVKRKDF	did not exhibit reactivity	–
